Laboratory results reported in PMC8561398, “The Histidine Ammonia Lyase of Trypanosoma cruzi Is Involved in Acidocalcisome Alkalinization and Is Essential for Survival under Starvation Conditions” (mBio, 2021).

Substrate: N[C@@H](Cc1c[nH]cn1)C(=O)O
Assay: purified protein
Format: biochemical, Trypanosoma cruzi
Details: 100 mM Tris-HCl pH 8.8, 0.1 mM MnCl2, 1.7 mM reduced glutathione, 30°C, L-histidine 0.2 to 5 mM, four catalytic sites considered

B1: 6×His-HAL (rHAL; histidine ammonia lyase) (Trypanosoma cruzi strain CL Brener) (protein)
chain: MRVILDGCSLTPDVLYALGYEKGATIEISDEAVARITAARAVIDKIVNDRQTVYGINTGFGKFESTIIPPHQLEELQLNLIRSHSACVGEPLTPERARMMLALRVNVLCKGHSGIRLETVQKYVKAFNAGVVPYIPEQGTVGASGDLGPLSHLALGMLGEGLLATLNNKKFRDAGSVLRELGVEPITLAAKEGLALINGTQFISALGAEAVVRARKIARLADVALAMSHEALRATNSTLNPDIHRVRPHKGQQLVAQRLRALLHSEEYPSMINESHVNCGRVQDAYSIRCAPQVHGISNEVIEWVYGILTTELNCATDNPLVFPDGVKKVVSGGNFHGEYPAKALDMLAIGVHELGNISERRIERLNNPTLSRLPAFLVKNGGLNSGFMIAHCTAAALVSENKVYCHPASADSISTSAAQEDHVSMGGFSARKAIKVVENVERIIAIELLGACQGIDLLRPLRTTEPMEKVWSLVRSVSPPWEEDRVINTDIDNVTKLLRSGAVWKTVKPYVPEEARFLGVLTVKKPFELKSKM
notes: four catalytic sites considered; Q4E133 used for alignment; locus tag from YC6
B1 was tested. Which kcat did it give?
The kcat was 9.027 to 11.7 s⁻¹.
